Source: a protein production outcome set (Wang et al. 2014)

Assay: label from the status in PepcDB records

Sequence | protein production
MILKTLRNIFITIVVIAIIVIGGLFGLNAYSNQHPNNHSINDWNKLNPLAPTYEYYVKTQKPSKVEVVDKEKDFYIYHYNQTGYTKDGKSKKIEYTASKKLKQNHYLVVREKSHTIQSFEEVKKSKIPTKAKEKL | failed
MILLSVHDSFLLDHNLPSACDKVFERLLDVTNSSFGFIATLQEDEDGQSLYLPAISNLAWDEETLTWYRHQRRTHGGLRLRKLDNLFGHVVTHNTVVCTNSLLRQKAGRDLPPIHPALHSLLGIPITHNGKTVGMIALANRREGYDQTMIELEHHHHHH | failed
MILLTKITLLLFSSIFFSYILYMKSHSFKKIEPRKCSLNLMIIGMAFIVVGEFLNFISSFVKYRVDIYVSFCFILGAILFVIFAIIFLNSVDNTLKCLYGCVYEDAMTGVYNRNGIKKIFKDTINKEDNFFVMSFDLDETKIINDNFGHLVGDEYIISAARAIKEVLGAKGVVGRTGGDEFAAIYISTDQEELKKVKTHINKRASEIFNGSNINISMGFSTYKKDGKNMKELFDLADKRMYQDKKNKRKADQRF | failed
MILMSNEIKNPKKRRKLVEYANGRSLEEINGTVKVPKNIGFWKALFMYSGPGALVAVGYMDPGNWSTSITGGQNFQYMLMSIILISSLIAMLLQYMAAKLGIVSQMDLAQAIRARTSKSLGIVLWILTELAIMATDIAEVIGAAIALYLLFHIPLAIAVFITVLDVLLLLLLTKIGFRKIEAIVVCLIMVILVVFVYQVALSNPNWGAVFSGLVPTTKAFETSPTIGGMTPLSGSLGIIGATVMPHNLYLHSAVSQTREIDHNDEEDVARTLRFSTWDSNIQLSFAFIVNSLLLVMGVAVFKSGAVQDPSFFGLFHALNDTSTLSNGILIGVAKTGVLSTLFAVALLASGQNSTITGTLTGQVIMEGFIHMRMPLWARRLITRLISVVPVLICVMITSGKGDLQEHEALNQLMNNSQVFLAFALPFSMIPLLMMTDSRVEMGDRFKNSWAVKILGWISVIFLTYLNMTGLPNSITAFFGANPSAGEVELAHIIAYMLVAVVLALLAWTVFELHKGNQRYELEMRSKAEAKEEA | failed
MILNPQQRTKLDSRRDDLFYAAPRFVTHVDDFFLARLTDLYRQYLQPQMRVLDLMSSWVSHLPPELSFQEVVGHGMNAAELARNPRLDRYFVQNLNEELALPLEDASFNAVLMAVSVQYLQYPEATFTEIARILKPQGVVIVSFSNRMFFEKAIQAWREGSEGDRVQLVQTYINSTPSLKVIATHLPRLWPWRGFTDPFYAVVGQKQAVLEHHHHHH | not failed
MILNTEEYPISIGNEIKYTKEVYDCLQLLRLRTILKEYEVNLILDVGANEGQFASVLRDIGYVGTIISFEPLSKEYRLLSQAASKDSNWYTYNLALGKQNKEQILHVSDKSTFSSFLLSNSLCEQRFGKESIGDKNEVVSVRRLDNFLVEVVKNIDKMRIYLKMDTQGYDLEVFSGAGTLLKNIVALQSEVSVVPIYHSMPDMLYSISLFQEAGFSLSGMYPVTYVKPTLQVIEFDCLMVKADTKIS | failed
MILNVAGPLGNPAPMEKFGKILAIGAYVGIAEVYPIAKAWQEIGNDVTTLHVTFEPMVILKDYFEKAVSRHIVEPVKIDQEKSFQENTKNVTKALTAKVKELLDNENWDLVFMVGPPGDQKAVFEVVKKYGIPMKVDLHPIMLEHHHHHH | not failed
MILPPAFHAALLSGGNGRESKLPWVALGLAWLLAVLALLGPSWQRVEQTSQKPADPLVVLLELTPQMLANDVPPDRLEQARHKLLDLLQLRSDAQTAIVVYAGSAHTLVPLSDDLATSRNLLDALKPSIMPQAGQRADLALLKALKLLDQGALGQGRVLLMASSLNEEERQGIRQALKGDAPQLLMLGFGSRDGAPVAQEDGSYLKDDQGAILVSRLDSPDLKHFIGDVGGRYRQARLDDSDLRGLGLLGGPQGLRSDGQTLRLDTWADQGYWLLLPLLLLAACAGRRGWLFCLPLLLFAVPQPSYAFDFNDLWLRPDQQGQRLLQQQRPAEAARHFQDPQWQGVALYEAGNYTAAAERFAEGNDARAHYNRGNALARSGELEAAIDAYEQALERQPDLQPALQNKALVESLLQQQQAQTQTPPPAKKPDTPEGDDTRPGPSGAATQPPPGSNGPQDPAQAPANEGDTPPPDPQAAGHSEVPGSELDDQHTTTPLRPVEDSLDAEHQQALEQWLRKIPDDPGELLRRKFWYEQQQHQDQGKTR | failed
MILQNKTFDLNPNDIAGLELVCQTLRNRILEVVSANGGHLSSSLGAVELIVGMHALFDCQKNPFIFDTSHQAYAHKLLTGRFESFSTLRQFKGLSGFTKPSESAYDYFIAGHSSTSVSIGVGVAKAFCLKQALGMPIALLGDGSISAGIFYEALNELGDRKYPMIMILNDNEMSISTPIGALSKALSQLMKGPFYQSFRSKVKKILSTLPESVNYLASRFEESFKLITPGVFFEELGINYIGPINGHDLSAIIETLKLAKELKEPVLIHAQTLKGKGYKIAEGRYEKWHGVGPFDLDTGLSKKSKSAILSPTEAYSNTLLELAKKDEKIVGVTAAMPSGTGLDKLIDAYPLRFFDVAIAEQHALTSSSAMAKEGFKPFVSIYSTFLQRAYDSIVHDACISSLPIKLAIDRAGIVGEDGETHQGLLDVSYLRSIPNMVIFAPRDNETLKNAVRFANEHDSSPCAFRYPRGSFALKEGVFEPSGFVLGQSELLKKEGEILLIGYGNGVGRAHLVQLALKEKNIECALLDLRFLKPLDPNLSAIVAPYQKLYVFSDNYKLGGVASAILEFLSEQNILKPVKSFEIIDEFIMHGNTALVEKSLGLDTESLTDAILKDLGQER | failed
MILSRYIARRFLRMVFIVFLAFFGLMMLIDVLDQMRRFSDEGITLVQAGLLSLLRVPATLYTILPLIVILAAVALFLGLARSSELVVVRAAGRSGLRFLVAPMVVALALGTVAVTVLNPIVAGTSRQYDAAAGRLARGEASILSISKEGLWLRQGGSGEQTVIHALRSNTDGTRLYAVTFLTFDAEGRPTGRIAAEQAALERGYWQLSGAKSWDLTEANPEARAGLPGNLRVTSELTREGIQDSFGDPSAIPIWELPAYVAGLERAGFSARKHRVWMQMEFALPATLAAMVLVAAGFTMRHSRFGGTGRMVLLALLGGFSLFFLRNFAQVLGENGQIPILLAAWSPPLIGVMGSLGLLLHLEDG | failed
MILVTGFEPFGSLEHNPSQALLDLLPSEVDGKPLRKAVLPVDAEALGEALEDLHREGPKAVLHLGLAEDRPVLTLERLAVNLLDFPRPDNRGRVLEDLPIVPGGPLALPARFPVKPVLARWREAGIPGRPSLSAGSYLCNQAFYLSLYRLPEEVPVGFLHLPPDETLALKRPRPYVPLEVQARAVRLALEHL | not failed
MIMFNYQQTSQSCVKCGKCIPSCTIYNIHPDEVTSPRGFIDLLGAYQRGELELDKNAKDIFEKCFLCTNCTYVCPNLLPTDQVIENVRAEIAQKFGIAWFKRAYFFLLRNRWLEHHHHHH | failed
MIMMESGKLDLDRTKEGVKKYWDYGSKFYDTAPGLGGNEESQIWKKLLSSSIGPDLKNILDVGSGTGIIAMYLAELGYGVTAVDFSEGMMDIARKKALEKGAKIRFMEGDIENLSFEDETFDCVTARYVLWTLPHPEKALKEWVRVVKPGGRIVIIDGKWVTRGLLPRISAMNYHIYRFIKYGKNPFTYDYRKEVSVGLPNPHGVEKKQIMEYVSKAGLTDIVVTDLKIIRDIQRKKLPWYLKYANDHPIFMVRGTVAKKG | failed
MIMMKRYKKILLTGVLSALSCSFVHAQELYKNENAPVHERVMDLISRLTVEEKISLLRATSPGIPRLGIDKYYHGNEALHGVVRPGRFTVFPQAIGLAATWNPELQKRVATVISDEARARWNELDQGREQKEQFSDVLTFWSPTVNMARDPRWGRTPETYGEDPFLSGIMGTAFVNGLQGDDPHYLKIVSTPKHFAANNEEHNRFVCNPQISEKQLREYYFPAFEMCVKEGKAASIMSAYNALNDVPCTLNPWLLQKVLRQDWGFQGYVVSDCGGPALLVNAHKYVKTKEAAATLSIKAGLDLECGDDVYDGPLLNAYKQYMVSDADIDSAAYHVLTARMKLGLFDSGERNPYTKISPSVIGSKEHQQIALDAARQCVVLLKNQKNRLPLNADKLKSIAVVGINAGKCEFGDYSGAPVVEPVSILQGIRNRVGDRVKVVYAPWKSAADGLELIQGENFPEGLQAEYFDNTRLEGTPRVRKESWINFEPANQAPDPFLPKSPLSVRWTGKLKPTVSGRYTFSFTSDDGCRLSINNQMLIDAWQAHAVSTDSASIYLEAGKEYQLKAEYYDNRDYAIAKLQWKVPQIGKATRLDLYGEAGKAVRECETVVAVMGINKSIEREGQDRYDIQLPADQREFLQEIYKVNPNIIVVLVAGSSLAINWMDEHIPAIVNAWYPGEQGGTAVAEVLFGDYNPAGRLPLTYYKSLDELPPFDDYDITKGRTYKYFKGDVLYPFGYGLSYSSFTYSDLQVKDGGGEVTVSFRLKNTGKRNGDEVAQVYVRIPETGGIVPLKELKGFRRVPLKSGESRRVEIKLDKEQLRYWDVEKGQFVVPKGAFDVMVGASSKDIRLQTVIDL | failed
MIMRQLAHFKFFDTLSKKMVAGFIILILIGTVLLSLPWATPANVHTSLIDVLFTSASATCITGLTVVNTAAHWTTFGQLVILVLSEVGALGYMTFAVLLFNIMRRQIGLSTQLMVKASLNLERLSDTKSVMKYVVGLSLLFQLGGLGLLAIDFVPRFGWRHGLYVSLYHAVMSFCNAGFDVFGDSLQGFRNDPYVLTVTMILIIAGGLGFLVWRDVLLYHTRKRLTLNSKLTLLTTFSLFVIGFVLLLITERDLELLPTGMSWVNRTINTLFLSVTPRTAGLITMPTQGLQAGSLLVIMILMFVGGTPGSTAGGIKTTTFGVLMFQSIAQLRGRRDVEFSHRRFSQENINRALMLIFLASIVLTVATLILTQTEKIPKGFGLEYVLFEVLSAFGTVGLSLGLTPNLTLIGKIVIMMLMFIGRVGIFTSLYALSRRQARVNLIRYPAENILIG | failed
MIMTVLRQQPRAAGLVLGLIAANFLAWCWALQAFGDSGALMAASLLAWGYGLRHAVDADHIAAIDNVTRKMMQQGRRPFAVGAWFSLGHSSIVVLASAAIAATATAFSTQMSWLHDTGSVIGTAVSALFLLAMAFINLVILRSVWRSFRAWKRGEPVSDEIVSGGGVMSWLFGKTFRLISRSWQMYLVGFLFGLGFDTATEIGVLGISAAGASSGISVWSIMVFPALFASGMALVDTLDNVLMVGAYGWAFSKPQRKLYYNMTITGTSVVVALFIGGLEALGLLMDKFALSGGIWRWVGALNDNLGDAGFVVVGLFVACWALSVLNYRWRGYDNLAR | failed
MINDIKILGVGGSPRKNGNTDVLLDSFLKGAESAGVETKKVLLRDYSIEPCIGCERCRKTGTCTRFHDGMSLLYPEIEAAKGLTLGSPTYNYNVTALMKAFIDRLYPYYNFTNVRPRRYSSKLAGQGRKAIVFSVCEQLEIEEMGFTLGALGMPLEALGYEIVEKFPVTGYFDRGAVSRDEELLRKTFEAGKKMAEALHLEHHHHHH | failed
MINFEATELRLGLPGGNHGGEMAGKNNGKRGFSETVDLKLNLSSTAMDSVSKVDLENMKEKVVKPPAKAQVVGWPPVRSFRKNVMSGQKPTTGDATEGNDKTSGSSGATSSASACATVAYVKVSMDGAPYLRKIDLKLYKTYQDLSNALSKMFSSFTIGNYGPQGMKDFMNESKLIDLLNGSDYVPTYEDKDGDWMLVGDVPWEMFVDSCKRIRIMKGSEAIGLAPRALEKCKNRS | failed
